Molecular target: the molecule itself
Assay: cryo-EM structure; single-particle cryo-EM of purified ASOR at pH 7.5 (digitonin, GDN or saposin nanodiscs) and at pH 4.5 (GDN or saposin nanodiscs; sodium citrate added); 5 mM Hepes, 150 mM NaCl; C3 symmetry; resting, activated and desensitized conformations

B1: human ASOR (TMEM206) proton-activated chloride channel (natural protein)
chain: not shown
notes: full-length human ASOR (TMEM206), UniProt Q9H813; codon-optimised synthetic cDNA; GFP tag removed with PreScission protease; residues left by the cleavage site are not described; also called PAC; acid-sensitive outwardly rectifying channel; not shown: GFP, C-terminal, cleaved
For B1, the “stoichiometry N” value was 3.

From publication PMC8809534, “Gating choreography and mechanism of the human proton-activated chloride channel ASOR” (Science Advances, 2022)
